# Test results from PMC10563079 (Molecules, 2023).
# Read-outs that look alike come from different tables or passages of the source. Bridge positions count the residues as written; N and C are the ends. Ends that are not written are not given here. Peptide text beside a SMILES is read from it.
# T1: full-length PHGDH (1-533) (Homo sapiens, UniProt O43175)
# T1 construct: the full-length PHGDH (1-533); made in house
# T1 sequence (O43175 1-533): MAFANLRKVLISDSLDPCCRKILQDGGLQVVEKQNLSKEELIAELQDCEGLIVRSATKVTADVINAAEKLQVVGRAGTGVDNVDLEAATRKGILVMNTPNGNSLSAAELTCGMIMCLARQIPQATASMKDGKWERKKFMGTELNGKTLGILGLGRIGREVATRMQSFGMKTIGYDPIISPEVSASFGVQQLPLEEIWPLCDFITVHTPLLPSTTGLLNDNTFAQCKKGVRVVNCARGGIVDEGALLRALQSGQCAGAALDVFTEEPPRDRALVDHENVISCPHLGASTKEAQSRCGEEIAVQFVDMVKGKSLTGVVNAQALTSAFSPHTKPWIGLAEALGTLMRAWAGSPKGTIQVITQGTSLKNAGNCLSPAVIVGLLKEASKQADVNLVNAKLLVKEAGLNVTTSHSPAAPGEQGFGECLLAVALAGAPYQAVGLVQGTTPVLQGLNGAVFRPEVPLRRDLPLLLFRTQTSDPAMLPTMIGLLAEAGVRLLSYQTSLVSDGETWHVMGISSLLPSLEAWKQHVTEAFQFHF
# T2: sPHGDH (1-307) (Homo sapiens, UniProt O43175)
# T2 construct: the truncated version of PHGDH (sPHGDH, 1-307); made in house
# T2 sequence (O43175 1-307): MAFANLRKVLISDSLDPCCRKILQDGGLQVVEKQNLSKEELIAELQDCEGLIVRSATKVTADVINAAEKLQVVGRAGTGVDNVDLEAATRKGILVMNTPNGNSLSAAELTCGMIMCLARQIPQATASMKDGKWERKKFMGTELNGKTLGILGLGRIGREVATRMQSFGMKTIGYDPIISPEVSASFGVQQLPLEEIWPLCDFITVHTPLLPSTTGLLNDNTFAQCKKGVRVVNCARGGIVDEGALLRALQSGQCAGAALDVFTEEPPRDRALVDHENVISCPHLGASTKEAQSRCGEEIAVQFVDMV
# T3: truncated version of PHGDH (sPHGDH, 1-307) (human, UniProt O43175 1-307, labelled with Monolith NT.115 Protein Labeling Kit RED-NHS (in the MST assay only))
# T3 sequence (looked up): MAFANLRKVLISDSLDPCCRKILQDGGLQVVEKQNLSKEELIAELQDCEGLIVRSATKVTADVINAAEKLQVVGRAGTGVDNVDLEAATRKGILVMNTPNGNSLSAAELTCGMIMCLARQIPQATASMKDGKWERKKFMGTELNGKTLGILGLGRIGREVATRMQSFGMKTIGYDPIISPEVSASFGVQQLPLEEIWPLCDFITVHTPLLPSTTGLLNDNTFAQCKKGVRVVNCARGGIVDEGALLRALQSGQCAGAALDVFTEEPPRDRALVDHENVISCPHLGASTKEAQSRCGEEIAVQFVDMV
# T4: full-length PHGDH (1-533) (human, UniProt O43175 1-533)
# T4 sequence (looked up): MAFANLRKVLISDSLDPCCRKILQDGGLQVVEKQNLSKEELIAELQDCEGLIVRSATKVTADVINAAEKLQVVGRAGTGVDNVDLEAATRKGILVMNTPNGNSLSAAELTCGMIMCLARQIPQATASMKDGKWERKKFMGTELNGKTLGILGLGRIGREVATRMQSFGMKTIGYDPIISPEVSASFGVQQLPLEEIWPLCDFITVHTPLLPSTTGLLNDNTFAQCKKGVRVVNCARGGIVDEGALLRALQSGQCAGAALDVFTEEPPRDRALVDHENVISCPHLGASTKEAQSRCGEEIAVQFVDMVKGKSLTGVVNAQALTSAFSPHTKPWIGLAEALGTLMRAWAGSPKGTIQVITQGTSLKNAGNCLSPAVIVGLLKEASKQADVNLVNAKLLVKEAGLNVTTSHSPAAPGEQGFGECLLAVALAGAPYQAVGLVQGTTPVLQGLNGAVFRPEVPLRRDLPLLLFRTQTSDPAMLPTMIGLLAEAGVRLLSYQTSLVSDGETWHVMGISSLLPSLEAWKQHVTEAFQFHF
# B1: cyclic peptide cyc1-11 (peptide)
# peptide: CTPQATLTMKNGSWEEKKC
# modifications: disulfide 1-19; not fully specified (N-terminus); printed as C_1_TPQA TLTMK NGSWE EKKC_19_
# notes: A7L and S8T combined with D11N, K13S, native E15 kept, E16 (peptide numbering); designed from the dimerization loop of human PHGDH; source: synthetic peptide (GL Biochem, Shanghai; Fmoc solid-phase synthesis, HPLC purified)
# B2: cyclic peptide cyc1-2 (peptide)
# peptide: CTPQATLSMKDGKWEEKKC
# modifications: disulfide 1-19; not fully specified (N-terminus); printed as C_1_TPQA TLSMK DGKWE EKKC_19_
# notes: cyc1-1 with A7L and R16E (peptide numbering); designed from the dimerization loop of human PHGDH; source: synthetic peptide (GL Biochem, Shanghai; Fmoc solid-phase synthesis, HPLC purified)
# B3: cyclic peptide cyc1-6 (peptide)
# peptide: CTPDATLSMKDGKWEEKKC
# modifications: disulfide 1-19; not fully specified (N-terminus); printed as C_1_TPDA TLSMK DGKWE EKKC_19_
# notes: cyc1-2 with Q4D (peptide numbering); designed from the dimerization loop of human PHGDH; source: synthetic peptide (GL Biochem, Shanghai; Fmoc solid-phase synthesis, HPLC purified)
# B4: cyclic peptide cyc1-9 (peptide)
# peptide: CTPQATASMKNGSWQEKKC
# modifications: disulfide 1-19; not fully specified (N-terminus); printed as C_1_TPQA TASMK NGSWQ EKKC_19_
# notes: the text names D11N, K13S and E15Q; designed from the dimerization loop of human PHGDH; source: synthetic peptide (GL Biochem, Shanghai; Fmoc solid-phase synthesis, HPLC purified)
# B5: double constrained cyclic peptide cyc2-1 (peptide)
# peptide: Ac-CTPQATACMKDGKWCRKKC
# modifications: disulfide 1-19, 8-15
# notes: cyc1-1 with an added intramolecular disulfide C8-C15 (S8C, E15C); designed from the dimerization loop of human PHGDH; source: synthetic peptide (GL Biochem, Shanghai; Fmoc solid-phase synthesis, stepwise disulfide formation, HPLC purified)
# B6: double constrained cyclic peptide cyc2-3 (peptide)
# peptide: Ac-CTPQATACMRDGKWCRKKC
# modifications: disulfide 1-19, 8-15
# notes: cyc2-1 with K10R (peptide numbering); source: synthetic peptide (GL Biochem, Shanghai; Fmoc solid-phase synthesis, stepwise disulfide formation, HPLC purified)
# B7: cyclic peptide cyc1-12 (peptide)
# peptide: CTPQATLSMKNGSWEQKKC
# modifications: disulfide 1-19; not fully specified (N-terminus); printed as C_1_TPQA TLSMK NGSWE QKKC_19_
# notes: contains R16Q, with A7L, D11N and K13S (peptide numbering); designed from the dimerization loop of human PHGDH; source: synthetic peptide (GL Biochem, Shanghai; Fmoc solid-phase synthesis, HPLC purified)
# Key:
# [1] = target: T1, full-length PHGDH (1-533); test: full-length PHGDH enzyme activity assay (NADH fluorescence); format: biochemical
# Procedure: (§1) PHGDH activity in the presence of peptides was measured in 96-well plates (100 μL per well) at 25 °C, through monitoring the NADH fluorescence (excitation at 360 nm and emission at 460 nm) over time. PAST1 and its substrate glutamate were also included in order to prevent product inhibition. In the enzyme assays, protein expression and purification, including the truncated version of PHGDH (sPHGDH, 1-307), the full-length PHGDH (1-533), and PAST1, were carried out as described in our previous papers. To evaluate the effects of peptides on enzyme activity, the peptides were pre-incubated with enzyme samples (sPHGDH 453.3 nM or PHGDH 30.9 nM) in the assay buffer (HEPES 50 mM, pH 7.5, 10 mM MgCl2, and 1 mM EDTA) for 12 h. Then, 1.98 μM PAST1, 1 mM NAD^+, and 30 mM glutamate were added and pre-incubated for 10 min before initiating the enzyme reaction via the addition of the substrate (1 mM 3-PG). Fluorescence signals were recorded for 3 min with the kinetics-reading mode of the Biotek plate reader (Synergy). IC50 values were obtained through fitting the data using a three-parameter Hill model of the graph of log dose against the percentage inhibition from three repeated experiments. For those peptides containing two disulfide bonds, a second step of oxidation reaction was carried out to generate the second disulfide pair. […] The purified Acm-protected peptide was then treated with iodine (I2, 1 wt% in MeOH), dropwise under acidic conditions until the solution became brown.
# sPHGDH (1-307) = target: T2, sPHGDH (1-307); test: sPHGDH enzyme activity assay (NADH fluorescence); format: biochemical
# Procedure: as §1
# [2] = target: T3, truncated version of PHGDH (sPHGDH, …); test: cell-based or functional assay
# [3] = target: T4, full-length PHGDH (1-533); test: cell-based or functional assay
# [4] = target: T3, truncated version of PHGDH (sPHGDH, …); test: MST; sPHGDH labelled with RED-NHS, 20 nM final; peptides in 16 points, 1:2 dilutions from 0.5 mM; 50 mM HEPES pH 7.5, 1 mM EDTA, 10 mM MgCl2, 100 mM NaCl, 0.005% Tween 20; incubated 16 h at room temperature; 1:1 binding mode; apparent; conditions: both partners purified
# [5] = read-out: IC50 value (μM), full-length PHGDH activity
# [6] = sPHGDH, 12 h pre-incubation, read-out: IC50 Value
# [7] = IC50 value (μM), full-length PHGDH activity
Molecule,IC50 of inhibition of sPHGDH enzyme activity (NADH fluorescence); the pair blocked is the sPHGDH homo-dimer (m1+m1) [2] [µM],IC50 of inhibition of full-length PHGDH enzyme activity (NADH fluorescence); the pair blocked is the PHGDH homo-oligomer (m2+m2) [3] [µM],Kd [4] [µM],also measured
"CSCC[C@@H]1NC(=O)[C@H](CO)NC(=O)[C@H](CC(C)C)NC(=O)[C@H]([C@@H](C)O)NC(=O)[C@H](C)NC(=O)[C@H](CC(=O)O)NC(=O)[C@@H]2CCCN2C(=O)[C@H]([C@@H](C)O)NC(=O)[C@@H](NC(C)=O)CSSC[C@@H](C(=O)O)NC(=O)[C@H](CCCCN)NC(=O)[C@H](CCCCN)NC(=O)[C@H](CCC(=O)O)NC(=O)[C@H](CCC(=O)O)NC(=O)[C@H](Cc2c[nH]c3ccccc23)NC(=O)[C@H](CCCCN)NC(=O)CNC(=O)[C@H](CC(=O)O)NC(=O)[C@H](CCCCN)NC1=O [Cyc1-6, C1TPDA TLSMK DGKWE EKKC19] (Ac-CTPDATLSMKDGKWEEKKC-OH; disulfide 1-19)",,,,"IC50 [1, 5]: 24.6 ± 2.3 µM; IC50 (sPHGDH (1-307); [6]): 5.1 ± 0.4 µM"
"CSCC[C@@H]1NC(=O)[C@H]([C@@H](C)O)NC(=O)[C@H](CC(C)C)NC(=O)[C@H]([C@@H](C)O)NC(=O)[C@H](C)NC(=O)[C@H](CCC(N)=O)NC(=O)[C@@H]2CCCN2C(=O)[C@H]([C@@H](C)O)NC(=O)[C@@H](NC(C)=O)CSSC[C@@H](C(=O)O)NC(=O)[C@H](CCCCN)NC(=O)[C@H](CCCCN)NC(=O)[C@H](CCC(=O)O)NC(=O)[C@H](CCC(=O)O)NC(=O)[C@H](Cc2c[nH]c3ccccc23)NC(=O)[C@H](CCCCN)NC(=O)CNC(=O)[C@H](CC(=O)O)NC(=O)[C@H](CCCCN)NC1=O [Cyc1-7, C1TPQA TLTMK DGKWE EKKC19] (Ac-CTPQATLTMKDGKWEEKKC-OH; disulfide 1-19)",,,,"IC50 [1, 5]: 23.5 ± 2 µM; IC50 (sPHGDH (1-307); [6]): 5.6 ± 1.2 µM"
"CSCC[C@@H]1NC(=O)[C@@H]2CSSC[C@H](NC(=O)[C@H](Cc3c[nH]c4ccccc34)NC(=O)[C@H](CCCCN)NC(=O)CNC(=O)[C@H](CC(=O)O)NC(=O)[C@H](CC(C)C)NC1=O)C(=O)N[C@@H](CCCNC(=N)N)C(=O)N[C@@H](CCCCN)C(=O)N[C@@H](CCCCN)C(=O)N[C@H](C(=O)O)CSSC[C@H](NC(C)=O)C(=O)N[C@@H]([C@@H](C)O)C(=O)N1CCC[C@H]1C(=O)N[C@@H](CCC(N)=O)C(=O)N[C@@H](C)C(=O)N[C@@H]([C@@H](C)O)C(=O)N[C@@H](C)C(=O)N2 [Cyc2-2, C1TPQA TAC8ML DGKWC15 RKKC19] (Ac-CTPQATACMLDGKWCRKKC-OH; disulfide 1-19, 8-15)",,,,"IC50 [1, 7]: 32.9 ± 4 µM; IC50 (sPHGDH (1-307)): 9.4 ± 1.5 µM"
"CSCC[C@@H]1NC(=O)[C@@H]2CSSC[C@H](NC(=O)[C@H](Cc3c[nH]c4ccccc34)NC(=O)[C@H](CCCCN)NC(=O)CNC(=O)[C@H](CC(=O)O)NC(=O)[C@H](CC(C)C)NC1=O)C(=O)N[C@@H](CCC(=O)O)C(=O)N[C@@H](CCCCN)C(=O)N[C@@H](CCCCN)C(=O)N[C@H](C(=O)O)CSSC[C@H](NC(C)=O)C(=O)N[C@@H]([C@@H](C)O)C(=O)N1CCC[C@H]1C(=O)N[C@@H](CCC(N)=O)C(=O)N[C@@H](C)C(=O)N[C@@H]([C@@H](C)O)C(=O)N[C@@H](C)C(=O)N2 [Cyc2-6, C1TPQA TAC8ML DGKWC15 EKKC19] (Ac-CTPQATACMLDGKWCEKKC-OH; disulfide 1-19, 8-15)",,,,"IC50 [1, 7]: 47.1 ± 5.2 µM; IC50 (sPHGDH (1-307)): 15 ± 1 µM"
B1,5.4,16.2,23.1 ± 4.2,
B2,6.4,,11.4 ± 3,
B3,5.1,,24.8 ± 7.1,
B4,4.7,,9.8 ± 2.2,
B5,12,37.3,3.3 ± 0.8,
B6,5.2,32.9,,
B7,5.6,20.3,,
